Reference: patent US11529390B2, “PCSK9 inhibitory polypolypeptides and methods of use” (INSTITUT DE CARDIOLOGIE DE MONTREAL, priority 2015, dated 2022)

Tests used:
[1] = tested on: PCSK9-mCherry internalization; test: PCSK9-mCherry internalization in LDLR-EGFP transfected HepG2 cells, confocal microscopy; format: cell-based, human; settings: 10 nM recombinant protein, HepG2, overnight, versus control
Method: (§1) FIG. 5: SEQ ID NO. 67 blocks PCSK9 internalization and LDLR degradation. Recombinant SEQ ID NO. 67 was added to conditioned media obtained from HEK293 transfected with PCSK9-mCherry or in DMEM together with recombinant human PCSK9, rotated 4 h at 4° C. and added overnight on HepG2 cells as indicated. (a) Following 24 h post-transfection with LDLR-EGFP cDNA (SEQ. ID. NO. 69), HepG2 cells were incubated with PCSK9-mCherry without (−) or with 10 nM SEQ ID NO. 67. Fluorescent proteins were visualized in fixed cells by confocal microscopy. (b) Cells were incubated without or with 25 nM PCSK9 alone or with 0, 10, 25 or 100 nM SEQ ID NO. 67. Total LDLR, SEQ ID NO. 67, PCSK9 and β-actin protein levels were analyzed by immunoblotting in cell lysates and conditioned media as indicated. Data are representative of at least three independent experiments.
Huh-7 cells were washed three times with PBS, fixed with Bouin's solution (0.9% picric acid, 9% paraformaldehyde, 5% acetic acid/PBS) for 15 min. Following extensive PBS washes, cells were permeabilized with 0.1% Triton X-100/PBS for 10 min and incubated with 150 mM glycine to stabilize the aldehydes. […]

[2] = tested on: PCSK9-induced LDLR degradation; test: PCSK9-induced LDLR degradation in HepG2 cells, extracellular addition, immunoblot; format: cell-based, human
Method: as §1
FIG. 7: SEQ ID NO. 6 prevents PCSK9-induced LDLR degradation. (a) Left; Coomassie staining of purified recombinant SEQ ID NO. 6 and PCSK9 separated by SDS-PAGE is shown. Right; HepG2 cells were incubated in DMEM without or with 0, 25, 100 or 250 nM SEQ ID NO. 6 alone or in presence of recombinant PCSK9. (b) HepG2 cells were transfected without (−) or with PCSK9-V5 in absence (−) or presence SEQ ID NO. 66 or SEQ ID NO. 46. Total LDLR, PCSK9, SEQ ID NO. 66, SEQ ID NO. 46 and β-actin protein levels were analyzed by immunoblotting in cell lysates and conditioned media as indicated. Data are representative of at least three independent experiments.
For Western blot analyses, SDS-polyacrylamide gels were blotted on nitrocellulose membranes (Cat. #162-0115, Bio-Rad), and blocked for 1 h in Tris-Buffered Saline-Tween 20 (TBS-T; 50 mM Tris-HCl, pH 7.5, 150 mM NaCl, 0.1% Tween 20) containing 5% non-fat dry milk. Membranes were then incubated overnight in TBS-T supplemented with 1% non-fat milk and indicated antibodies: rabbit anti-PCSK9 (1:2500, custom made, GenScript), goat anti-human or anti-mouse LDLR (1:1000; Cat. #AF2148 or #A2255, R&D Systems), rat anti-Grp94 (1:30,000), rabbit anti-GRP78 (1:2500; Cat. #ab21685, Abcam), rabbit anti-GFP (1:2000; Cat. #A11122, Life Sciences), mouse anti-V5-tag (1:5000; Cat. #A00641, GenScript), mouse anti-HA-tag (1:5000), rabbit anti-β-actin (1:5000; Cat. #A2066, Sigma-Aldrich). Appropriate HRP-conjugated secondary antibodies (1:10,000, GE healthcare) were used for detection using the Western Lightning Ultra chemiluminescence kit (Cat. #NE1112001EA, PerkinElmer) and BioFlex EC Films (Cat. #CLEC810, InterScience).
To validate this hypothesis, we therefore first tested the effect of extracellular SEQ ID. NO. […]
We next tested whether SEQ ID. […] (Poirier et al., 2009) As PCSK9 was also shown to induce LDLR degradation via an intracellular pathway, (Poirier et al., 2009) we evaluated to ability of SEQ ID. […]

PCSK9 binding to LDLR = molecular target: T1, PCSK9 binding to LDLR (Homo sapiens, UniProt Q8NBP7); test: In vitro PCSK9-LDLR competitive pull-down (immunoprecipitation with mAb-V5); settings: 1 μg PCSK9, 1 μg LDLR, preincubation 4 h
T1 construct: made in house; host or cells: HEK293T
Method: FIG. 6: SEQ ID NO. 6 reduces PCSK9 binding to LDLR in vitro. Left; Coomassie staining of His6 tag purified recombinant SEQ ID NO. 6 and PCSK9 produced as described in Material and Methods. Right; PCSK9-V5-His6 (1 μg) was incubated without (−) or with (+) recombinant SEQ ID NO. 6 (2 μg) in 500 μl of immune-precipitation (IP) buffer (PBS, 1 mM CaCl2, 1% Tween-20 and protease inhibitors) for 4 h at 4° C. on a rotator. Following incubation, 1 μg of recombinant human LDLR ectodomain was added together with 50 μl of A/G-agarose beads and 1 μg of mAb-V5 antibody and incubated with rotation overnight. Samples were then centrifuged at 3,000×g for 5 min and pellets washed three times with 1 ml IP buffer and rotated for 10 min 4° C. and resuspended in 2× Laemmli loading buffer. Samples were separated by SDS-PAGE and immune-blotted as indicated. Data are representative of two independent experiments.
NO. […] NO. 3 might be due to direct competition for PCSK9 binding to the LDLR. To test this hypothesis, we subcloned the SEQ ID. NO. 6 into the pET-24 bacterial expressing vector of which recombinant protein were retrieved from E. coli and purified by metal affinity and size exclusion chromatography. The homogeneity of purified SEQ ID. NO. 6(^˜20 kDa) and recombinant PCSK9 purified from conditioned media of HEK293 transfected cells were assessed by SDS-PAGE and coomassie staining (FIG. 6; left panels). […]

T1 sequence (Q8NBP7 153-692): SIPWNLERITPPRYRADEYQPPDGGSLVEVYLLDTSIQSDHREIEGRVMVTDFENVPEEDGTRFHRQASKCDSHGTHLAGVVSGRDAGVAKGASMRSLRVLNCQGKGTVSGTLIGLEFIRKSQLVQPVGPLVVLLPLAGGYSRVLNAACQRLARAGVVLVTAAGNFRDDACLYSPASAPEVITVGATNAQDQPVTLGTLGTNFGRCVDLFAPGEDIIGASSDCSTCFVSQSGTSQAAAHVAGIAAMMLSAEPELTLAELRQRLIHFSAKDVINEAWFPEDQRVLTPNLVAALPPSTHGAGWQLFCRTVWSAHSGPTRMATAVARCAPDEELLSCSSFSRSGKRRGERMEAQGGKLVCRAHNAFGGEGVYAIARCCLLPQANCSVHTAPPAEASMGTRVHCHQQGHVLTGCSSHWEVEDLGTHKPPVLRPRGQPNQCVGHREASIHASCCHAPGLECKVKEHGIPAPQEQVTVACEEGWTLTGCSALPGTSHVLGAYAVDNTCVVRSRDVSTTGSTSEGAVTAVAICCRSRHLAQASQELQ
T1 sequence (Q8NBP7 31-152 partner limits assumed): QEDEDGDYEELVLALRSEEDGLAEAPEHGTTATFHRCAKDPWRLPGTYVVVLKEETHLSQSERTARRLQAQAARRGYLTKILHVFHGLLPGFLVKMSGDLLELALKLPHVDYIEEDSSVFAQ

Q: How did the “PCSK9-mCherry internalization in LDLR-EGFP expressing cells” value [1] turn out when “SEQ ID. NO. 67: full-length recombinant GRP94 obtained from Enzo Life Sciences (Cat. #ADI-SPP-766)” was run?
A: significantly reduced

Q: And the “Effect on PCSK9-induced LDLR degradation” value ([2]; HepG2, overnight, 25 nM PCSK9, 0, 10, 25 or 100 nM protein)?
A: reverted in a dose-dependent manner

B1: SEQ ID. NO. 6: GRP94 CDB-CT domain, 148 aa, recombinant ~20 kDa protein purified from E. coli (protein)
chain: YGWSGNMERIMKAQAYQTGKDISTNYYASQKKTFEINPRHPLIRDMLRRIKEDEDDKTVLDLAVVLFETATLRSGYLLPDTKAYGDRIERMLRLSLNIDPDAKVEEEPEEEPEETAEDTTEDTEQDEDEEMDVGTDEEEETAKESTAE
Q: With B1 as the molecule, how does the “Block of exogenously added PCSK9” value ([2]; 250 nM, HepG2, exogenous PCSK9 ~6-fold endogenous levels) read?
A: not sufficient

Q: And the “Concentration at which maximum effect on total LDLR protein levels was saturated” value ([2]; HepG2, overnight)?
A: ≤ 25 nM

Q: What about the “Total LDLR protein levels” value ([2]; HepG2, overnight, extracellular addition, endogenously secreted PCSK9) of the same molecule?
A: significantly increases

Q: And the “LDLR pull-down with PCSK9” value (PCSK9 binding to LDLR)?
A: partially inhibited
